Tests used:
[1] = test system: AncSZ; test: phosphorylation enrichment, bacterial display (enrichment ratio); higher = better substrate or ligand; peptides without Tyr show the background
[2] = target: EPHB1 (UniProt P54762); test: as above
[3] = target: EPHB2 (UniProt P29323); test: as above
[4] = target: FGFR1 (UniProt P11362); test: as above
[5] = target: FGFR3 (UniProt P22607); test: as above
[6] = test system: Fer (mouse); test: as above
[7] = target: Fes (UniProt P07332); test: as above
[8] = target: Fyn (UniProt P06241); test: as above
Fyn, sequence (P06241 whole entry, looked up): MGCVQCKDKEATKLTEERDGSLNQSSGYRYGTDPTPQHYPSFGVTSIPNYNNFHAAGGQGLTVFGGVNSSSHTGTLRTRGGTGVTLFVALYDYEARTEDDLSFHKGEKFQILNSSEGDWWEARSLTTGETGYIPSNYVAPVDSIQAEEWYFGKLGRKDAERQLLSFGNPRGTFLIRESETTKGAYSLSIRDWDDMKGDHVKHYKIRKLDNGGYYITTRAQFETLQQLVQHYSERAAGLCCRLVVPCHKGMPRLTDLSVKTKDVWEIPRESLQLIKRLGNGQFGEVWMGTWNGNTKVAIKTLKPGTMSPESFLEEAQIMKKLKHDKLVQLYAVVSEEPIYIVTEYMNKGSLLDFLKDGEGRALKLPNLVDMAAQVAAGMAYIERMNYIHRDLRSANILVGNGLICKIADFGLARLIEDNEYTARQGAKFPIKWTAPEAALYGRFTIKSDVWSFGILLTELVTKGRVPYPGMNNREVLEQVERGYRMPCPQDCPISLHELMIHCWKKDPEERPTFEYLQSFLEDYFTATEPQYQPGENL

[9] = target: Hck (UniProt P08631); test: as above
Hck, sequence (P08631 whole entry, looked up): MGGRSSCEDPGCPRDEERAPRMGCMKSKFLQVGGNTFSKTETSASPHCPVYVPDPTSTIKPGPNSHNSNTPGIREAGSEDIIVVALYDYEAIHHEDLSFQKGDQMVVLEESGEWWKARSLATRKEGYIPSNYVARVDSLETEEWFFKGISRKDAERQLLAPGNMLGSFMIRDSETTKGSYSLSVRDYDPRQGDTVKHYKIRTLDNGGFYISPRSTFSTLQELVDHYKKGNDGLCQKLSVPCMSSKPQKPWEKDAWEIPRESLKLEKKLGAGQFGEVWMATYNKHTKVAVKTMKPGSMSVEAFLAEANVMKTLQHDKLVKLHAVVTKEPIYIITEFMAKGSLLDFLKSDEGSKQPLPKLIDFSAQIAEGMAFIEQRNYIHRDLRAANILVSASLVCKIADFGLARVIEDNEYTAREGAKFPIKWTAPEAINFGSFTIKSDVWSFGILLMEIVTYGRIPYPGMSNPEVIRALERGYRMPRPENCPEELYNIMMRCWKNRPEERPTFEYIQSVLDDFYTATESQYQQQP

[10] = target: Jak2 (UniProt O60674); test: as above
[11] = target: MERTK (UniProt Q12866); test: as above
[12] = test system: c-Abl (mouse); test: as above
[13] = test system: c-Src; test: as above
[14] = target: Grb2 SH2 (UniProt P62993); test: SH2 binding enrichment of the phosphorylated peptide, bacterial display (enrichment ratio); higher = better substrate or ligand; peptides without Tyr show the background
[15] = target: SHP2-C SH2; test: as above
[16] = target: c-Src SH2; test: as above
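Wherever SH2 binding enrichment of the phosphorylated peptide, bacterial display is given: peptide library displayed on the E. coli surface as eCPX fusions, selected cells deep-sequenced, score is each peptide's frequency after selection divided by its frequency in the input.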
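Wherever phosphorylation enrichment, bacterial display is given: 11-residue human phosphosite peptides and single-mutation variants displayed on the E. coli surface, counted by deep sequencing, each peptide's frequency after selection divided by its frequency in the unselected input library; frequency after pTyr selection over input frequency; kinase dosed for 20-30% of maximal phosphorylation in three min.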

EPHB2, sequence (P29323 whole entry, looked up): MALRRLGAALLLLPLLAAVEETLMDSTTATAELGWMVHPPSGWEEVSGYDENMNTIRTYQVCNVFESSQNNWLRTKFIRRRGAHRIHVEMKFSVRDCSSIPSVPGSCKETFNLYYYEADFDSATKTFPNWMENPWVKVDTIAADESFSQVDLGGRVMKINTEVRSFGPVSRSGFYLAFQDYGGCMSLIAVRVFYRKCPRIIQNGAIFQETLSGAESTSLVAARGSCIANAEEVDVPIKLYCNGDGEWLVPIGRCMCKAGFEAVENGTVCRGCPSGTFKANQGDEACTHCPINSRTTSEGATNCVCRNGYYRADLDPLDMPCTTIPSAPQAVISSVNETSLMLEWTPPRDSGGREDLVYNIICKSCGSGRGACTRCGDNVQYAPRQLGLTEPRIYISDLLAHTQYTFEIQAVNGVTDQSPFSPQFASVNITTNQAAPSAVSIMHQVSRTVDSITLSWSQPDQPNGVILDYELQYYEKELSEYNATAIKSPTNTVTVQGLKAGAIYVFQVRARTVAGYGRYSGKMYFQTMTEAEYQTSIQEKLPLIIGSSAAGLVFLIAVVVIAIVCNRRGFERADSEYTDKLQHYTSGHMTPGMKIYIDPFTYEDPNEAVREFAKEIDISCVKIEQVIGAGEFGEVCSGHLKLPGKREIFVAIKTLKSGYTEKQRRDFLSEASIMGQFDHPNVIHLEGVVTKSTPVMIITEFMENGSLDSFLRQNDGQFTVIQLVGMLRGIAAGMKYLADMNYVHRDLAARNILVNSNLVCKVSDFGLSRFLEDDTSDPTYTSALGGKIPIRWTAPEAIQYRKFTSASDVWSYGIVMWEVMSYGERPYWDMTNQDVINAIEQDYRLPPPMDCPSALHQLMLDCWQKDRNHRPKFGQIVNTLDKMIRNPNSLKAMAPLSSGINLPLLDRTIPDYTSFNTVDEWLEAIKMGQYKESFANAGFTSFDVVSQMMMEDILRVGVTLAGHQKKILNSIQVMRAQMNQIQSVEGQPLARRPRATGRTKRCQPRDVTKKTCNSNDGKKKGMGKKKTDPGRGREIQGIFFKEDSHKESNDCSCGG
Fes, sequence (P07332 whole entry, looked up): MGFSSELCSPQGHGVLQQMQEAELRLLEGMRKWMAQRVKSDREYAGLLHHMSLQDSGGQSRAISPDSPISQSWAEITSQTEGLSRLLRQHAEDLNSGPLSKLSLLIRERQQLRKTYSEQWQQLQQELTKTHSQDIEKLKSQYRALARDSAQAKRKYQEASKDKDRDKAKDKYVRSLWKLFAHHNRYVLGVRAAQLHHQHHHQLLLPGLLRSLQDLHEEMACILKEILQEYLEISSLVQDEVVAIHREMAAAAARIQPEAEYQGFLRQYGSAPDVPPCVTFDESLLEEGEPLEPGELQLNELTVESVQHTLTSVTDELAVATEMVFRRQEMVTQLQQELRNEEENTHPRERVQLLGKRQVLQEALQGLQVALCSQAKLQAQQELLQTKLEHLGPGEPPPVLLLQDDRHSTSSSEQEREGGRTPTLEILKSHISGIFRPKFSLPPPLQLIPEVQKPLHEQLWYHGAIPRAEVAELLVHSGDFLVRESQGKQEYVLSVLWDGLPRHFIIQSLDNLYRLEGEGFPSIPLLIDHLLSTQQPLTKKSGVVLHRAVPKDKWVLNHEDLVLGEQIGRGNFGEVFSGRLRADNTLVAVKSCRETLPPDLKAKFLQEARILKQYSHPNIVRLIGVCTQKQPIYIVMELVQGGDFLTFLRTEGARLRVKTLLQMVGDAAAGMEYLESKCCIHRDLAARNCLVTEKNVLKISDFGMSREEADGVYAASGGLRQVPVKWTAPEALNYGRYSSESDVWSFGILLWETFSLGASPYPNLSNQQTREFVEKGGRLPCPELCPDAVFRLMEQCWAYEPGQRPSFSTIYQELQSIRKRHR
FGFR1, sequence (P11362 whole entry, looked up): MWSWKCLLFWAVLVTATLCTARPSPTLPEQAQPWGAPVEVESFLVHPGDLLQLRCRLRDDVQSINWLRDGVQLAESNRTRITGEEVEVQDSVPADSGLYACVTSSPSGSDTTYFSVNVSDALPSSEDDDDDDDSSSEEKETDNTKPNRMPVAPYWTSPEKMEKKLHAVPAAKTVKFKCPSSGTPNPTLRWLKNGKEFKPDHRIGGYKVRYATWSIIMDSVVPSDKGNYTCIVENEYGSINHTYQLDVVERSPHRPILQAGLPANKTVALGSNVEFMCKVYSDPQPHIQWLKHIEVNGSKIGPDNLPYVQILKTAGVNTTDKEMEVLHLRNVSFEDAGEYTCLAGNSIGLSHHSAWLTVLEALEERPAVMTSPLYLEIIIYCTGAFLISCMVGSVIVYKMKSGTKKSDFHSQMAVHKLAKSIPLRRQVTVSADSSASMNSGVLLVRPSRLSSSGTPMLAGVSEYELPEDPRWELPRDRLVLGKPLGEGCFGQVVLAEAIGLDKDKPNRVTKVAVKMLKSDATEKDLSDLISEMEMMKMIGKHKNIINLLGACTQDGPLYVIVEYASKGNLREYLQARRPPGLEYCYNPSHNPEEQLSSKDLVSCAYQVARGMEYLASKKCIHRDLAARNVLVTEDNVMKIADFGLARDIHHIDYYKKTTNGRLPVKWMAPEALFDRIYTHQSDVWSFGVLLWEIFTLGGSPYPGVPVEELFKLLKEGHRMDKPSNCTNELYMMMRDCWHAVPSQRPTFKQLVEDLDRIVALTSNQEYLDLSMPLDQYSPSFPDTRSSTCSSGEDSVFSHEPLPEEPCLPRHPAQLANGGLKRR
EPHB1, sequence (P54762 whole entry, looked up): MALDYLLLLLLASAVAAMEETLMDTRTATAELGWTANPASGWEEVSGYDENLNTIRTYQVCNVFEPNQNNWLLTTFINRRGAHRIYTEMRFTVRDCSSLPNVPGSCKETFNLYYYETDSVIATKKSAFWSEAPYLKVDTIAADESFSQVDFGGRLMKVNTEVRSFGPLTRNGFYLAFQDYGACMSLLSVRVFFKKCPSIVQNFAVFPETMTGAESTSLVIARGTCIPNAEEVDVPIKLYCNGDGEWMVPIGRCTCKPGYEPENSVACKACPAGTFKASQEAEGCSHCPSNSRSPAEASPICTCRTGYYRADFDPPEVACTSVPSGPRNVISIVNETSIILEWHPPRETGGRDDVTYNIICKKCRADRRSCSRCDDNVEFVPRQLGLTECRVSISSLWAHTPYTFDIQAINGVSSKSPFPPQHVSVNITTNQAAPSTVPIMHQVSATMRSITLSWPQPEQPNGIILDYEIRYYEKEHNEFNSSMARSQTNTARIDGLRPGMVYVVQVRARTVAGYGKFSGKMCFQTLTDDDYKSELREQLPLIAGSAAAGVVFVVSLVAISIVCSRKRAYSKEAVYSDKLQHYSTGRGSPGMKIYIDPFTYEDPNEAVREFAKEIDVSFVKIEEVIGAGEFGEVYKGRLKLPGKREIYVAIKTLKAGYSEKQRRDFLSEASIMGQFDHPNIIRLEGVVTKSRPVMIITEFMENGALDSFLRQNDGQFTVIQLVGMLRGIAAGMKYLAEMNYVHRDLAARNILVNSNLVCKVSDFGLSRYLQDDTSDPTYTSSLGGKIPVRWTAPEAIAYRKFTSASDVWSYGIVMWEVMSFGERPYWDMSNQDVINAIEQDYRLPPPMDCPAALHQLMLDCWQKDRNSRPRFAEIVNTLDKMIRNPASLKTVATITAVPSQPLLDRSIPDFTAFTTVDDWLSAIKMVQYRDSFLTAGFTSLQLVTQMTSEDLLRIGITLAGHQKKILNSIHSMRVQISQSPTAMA

| SH2 binding enrichment [14] | SH2 binding enrichment [15] | SH2 binding enrichment [16] | Sequence | phosphorylation enrichment [1] | phosphorylation enrichment [2] | phosphorylation enrichment [3] | phosphorylation enrichment [4] | phosphorylation enrichment [5] | phosphorylation enrichment [6] | phosphorylation enrichment [7] | phosphorylation enrichment [8] | phosphorylation enrichment [9] | phosphorylation enrichment [10] | phosphorylation enrichment [11] | phosphorylation enrichment [12] | phosphorylation enrichment [13] |
| --- | --- | --- | --- | --- | --- | --- | --- | --- | --- | --- | --- | --- | --- | --- | --- | --- |
| 0.623 | 0.49 | 0.402 | RQLEIYRASRP [ERCC4_Y594] | 0.663 | 0.388 | 0.254 | 0.312 | 0.389 | 0.427 | 0.673 | 0.426 | 0.316 | 0.535 | 0.391 | 0.727 | 0.408 |
| 0.596 | 0.725 | 0.394 | IRKKYYRAILE [CHD7_Y1218_Q1214R] | 0.529 | 0.388 | 0.362 | 0.423 | 0.439 | 0.389 | 0.581 | 0.405 | 0.485 | 0.439 | 0.508 | 0.478 | 0.446 |
| 1.42 | 1.43 | 1.5 | SYCYRYRCAAQ [SUMF1_Y344_R349Q] | 0.768 | 0.382 | 0.424 | 0.499 | 0.464 | 0.346 | 0.599 | 0.419 | 0.5 | 0.599 | 0.515 | 0.471 | 0.399 |
| 0.962 | 0.659 | 1.57 | PVPKTYDMLNA [PKP2_Y108_K112N] | 0.866 | 0.512 | 0.622 | 0.597 | 0.737 | 0.542 | 1.11 | 0.666 | 1.07 | 1.04 | 1.14 | 1.05 | 0.83 |
| 1.03 | 2.5 | 1.91 | SLFNGYVYSGV [NEIL3_Y71] | 1.04 | 0.555 | 0.66 | 0.624 | 0.634 | 0.864 | 0.978 | 5.75 | 4.49 | 1.58 | 0.929 | 0.695 | 4.91 |
| 0.983 | 0.456 | 0.784 | NIKKEYTKMVQ [PMS2_Y181_A182T] | 0.494 | 0.394 | 0.333 | 0.808 | 0.439 | 0.27 | 0.492 | 0.378 | 0.385 | 0.49 | 0.452 | 0.502 | 0.426 |
| 1.03 | 0.75 | 0.835 | ACCLLYHGDVV [TUBA4A_Y319_R320H] | 0.918 | 0.551 | 0.539 | 2.49 | 1.45 | 1.88 | 0.887 | 0.507 | 0.632 | 0.797 | 0.739 | 0.69 | 5.43 |
| 0.999 | 1.69 | 2.98 | RPGSGYTKIMR [PKLR_Y564_N566K] | 0.546 | 0.415 | 0.303 | 0.372 | 0.368 | 0.42 | 0.525 | 0.404 | 0.409 | 0.41 | 0.48 | 0.396 | 0.348 |
| 0.814 | 0.602 | 0.573 | NLGQQYNSPQE [UMPS_Y432] | 0.895 | 0.563 | 0.579 | 0.614 | 0.675 | 0.498 | 0.974 | 0.495 | 0.502 | 0.78 | 0.413 | 0.634 | 0.374 |
| 0.755 | 0.663 | 0.769 | NSNAAYEQSHF [LRIF1_Y714] | 0.575 | 0.327 | 0.479 | 0.48 | 0.55 | 0.417 | 0.616 | 0.504 | 0.445 | 0.418 | 0.388 | 0.574 | 0.395 |
| 1.1 | 0.645 | 0.494 | NDENIYKGLPD [VAV3_Y141_D139N] | 1.34 | 0.564 | 0.644 | 0.529 | 0.799 | 0.579 | 1.2 | 1.23 | 1.4 | 1.14 | 0.542 | 1.08 | 1.78 |
| 0.829 | 0.996 | 0.668 | YRIGPYQPSVP [MATR3_Y784_N787S] | 0.55 | 0.421 | 0.434 | 0.749 | 0.759 | 0.429 | 0.708 | 0.514 | 0.481 | 0.524 | 0.425 | 0.62 | 0.449 |
| 1.47 | 0.996 | 0.759 | CEHRGFLFLAI [TEK_Y897_Y897F_YF] | 0.949 | 0.392 | 0.513 | 0.484 | 0.651 | 0.515 | 1.16 | 0.403 | 0.434 | 1.06 | 0.442 | 0.907 | 0.506 |
| 1.14 | 1.18 | 2.36 | YSIAQYCCRMG [LRRK2_Y2023_G2019S] | 1.24 | 1.98 | 12 | 0.987 | 0.64 | 1.23 | 0.708 | 0.895 | 0.911 | 0.574 | 8.37 | 5.03 | 0.79 |
| 0.858 | 0.616 | 0.408 | KEAQVYQAFKL [SUCLG2_Y343] | 1.1 | 1.07 | 0.566 | 0.516 | 0.603 | 9.27 | 1.05 | 11.3 | 9.46 | 0.801 | 2.84 | 15.3 | 7.32 |
| 0.651 | 0.981 | 0.482 | VVKTVYSLQPS [KNSTRN_Y87_P92S] | 0.648 | 0.671 | 0.455 | 0.52 | 0.561 | 0.485 | 0.848 | 1.73 | 0.688 | 0.715 | 1.42 | 0.716 | 2.05 |
| 1.3 | 1.53 | 1.52 | VMAALYGRLYE [BTD_Y536_T532M] | 0.795 | 0.961 | 1.42 | 0.468 | 0.617 | 1.38 | 0.963 | 5.87 | 5.58 | 0.864 | 3 | 0.8 | 5.01 |

| SH2 binding enrichment [14] | SH2 binding enrichment [15] | SH2 binding enrichment [16] | Sequence | phosphorylation enrichment [1] | phosphorylation enrichment [2] | phosphorylation enrichment [3] | phosphorylation enrichment [4] | phosphorylation enrichment [5] | phosphorylation enrichment [6] | phosphorylation enrichment [7] | phosphorylation enrichment [8] | phosphorylation enrichment [9] | phosphorylation enrichment [10] | phosphorylation enrichment [11] | phosphorylation enrichment [12] | phosphorylation enrichment [13] |
| --- | --- | --- | --- | --- | --- | --- | --- | --- | --- | --- | --- | --- | --- | --- | --- | --- |
| 0.852 | 0.523 | 0.744 | ENGPFYASFPP [GDAP2_Y488_T489A_YF] | 0.819 | 9.38 | 10.4 | 3.05 | 2.07 | 7.77 | 0.858 | 9.94 | 8.77 | 0.951 | 11.5 | 14.9 | 7.57 |
| 1.03 | 0.53 | 0.791 | PATFTYDEFKK [COL8A2_Y648_YF] | 1.49 | 1.38 | 1.24 | 0.77 | 1.12 | 1.68 | 1.43 | 1.9 | 2.06 | 1.3 | 0.677 | 0.864 | 1.68 |
| 1.11 | 0.625 | 0.861 | ATARPYRPFII [LRP5_Y1528_YF] | 0.465 | 0.356 | 0.469 | 0.402 | 0.566 | 0.406 | 0.61 | 0.359 | 0.405 | 0.589 | 0.469 | 1.05 | 0.389 |
| 0.684 | 0.827 | 0.855 | SVVVPYDPPEV [TP53_Y220_E221D] | 1.02 | 0.543 | 0.51 | 0.56 | 0.711 | 0.465 | 1.08 | 0.48 | 0.488 | 1.01 | 0.373 | 0.629 | 0.499 |
| 0.736 | 0.589 | 0.815 | AMCVCYDGVEV [ADAMTSL2_Y594_R593C] | 1.42 | 0.585 | 0.589 | 0.511 | 0.882 | 1.41 | 1.31 | 0.68 | 0.655 | 1.03 | 0.41 | 0.816 | 1.02 |
| 1.12 | 0.78 | 0.645 | LSQAKYQIRFR [CRLF1_Y272_F268S_YF] | 0.933 | 0.682 | 0.286 | 0.558 | 0.596 | 0.499 | 0.672 | 0.621 | 0.431 | 0.63 | 0.499 | 0.597 | 0.421 |
| 0.756 | 0.658 | 2.42 | CTTIHYNDMCN [TP53_Y234_Y236D] | 1.03 | 0.451 | 0.528 | 0.485 | 0.539 | 0.421 | 0.85 | 0.422 | 0.455 | 0.724 | 0.396 | 0.589 | 0.492 |
| 0.752 | 0.44 | 0.42 | SEKVVYRRFTE [NCF1_Y41] | 0.663 | 0.39 | 0.423 | 0.406 | 0.472 | 0.387 | 0.671 | 0.432 | 0.414 | 0.61 | 0.438 | 0.527 | 0.438 |
| 0.788 | 0.827 | 0.605 | WIPNQYPIISE [NOG_Y222_I220N] | 0.86 | 0.427 | 0.526 | 0.63 | 0.671 | 0.541 | 0.98 | 0.361 | 0.465 | 0.862 | 0.342 | 0.747 | 0.636 |
| 0.584 | 0.727 | 0.551 | VFAPDFIAGVS [NOB1_Y366_Y366F] | 0.69 | 0.52 | 0.479 | 0.664 | 0.619 | 0.392 | 1.02 | 0.436 | 0.435 | 0.775 | 0.469 | 0.709 | 0.501 |
| 1.06 | 1.47 | 0.431 | QYNPEYVQQAS [LRRC7_Y1058_H1054Y] | 1.16 | 0.687 | 0.802 | 0.854 | 1.05 | 0.939 | 1.28 | 0.707 | 0.831 | 0.995 | 0.635 | 1 | 0.508 |
| 0.932 | 0.83 | 0.875 | KKCTRYIDCDL [ASPA_Y64] | 0.798 | 0.428 | 0.434 | 0.623 | 0.575 | 0.423 | 0.852 | 0.389 | 0.41 | 0.782 | 0.421 | 0.757 | 0.429 |
| 1.05 | 1.83 | 0.927 | IGNGYYFHVFS [MYBPC3_Y1136_R1138H] | 1.46 | 0.848 | 0.552 | 1.61 | 1.52 | 0.604 | 1.39 | 0.43 | 0.45 | 1.73 | 0.503 | 0.919 | 0.354 |
| 14.1 | 1.03 | 6.34 | PFSSPYENSLI [EPOR_Y489_N487S_YF] | 1.4 | 1.24 | 1.15 | 0.604 | 1.3 | 3.51 | 1.42 | 1.34 | 1.21 | 0.941 | 0.891 | 0.705 | 0.674 |
| 1.16 | 0.986 | 0.591 | LEEFQYIGELQ [MSH2_Y856_S860L] | 1.92 | 0.892 | 0.788 | 0.793 | 1.08 | 0.656 | 2.04 | 0.718 | 0.908 | 2.39 | 0.716 | 1.33 | 0.738 |
| 0.984 | 0.867 | 0.484 | PKGIRYGQGAG [CSRP3_Y73_G72R] | 0.532 | 0.502 | 0.375 | 0.339 | 0.453 | 0.349 | 0.504 | 0.411 | 0.587 | 0.521 | 0.9 | 0.927 | 0.585 |
